Measurements from patent US20230357414A1 (SYNTHEKINE, published 2023).

T1: extracellular domain of human IL12Rb2 (amino acids 24-622 of hIL12Rb2, UniProt Q99665) (human, UniProt Q99665 24-622)
T1 construct: also called hIL12Rb2 ECD; hIL12Rb2-ECD
T1 sequence: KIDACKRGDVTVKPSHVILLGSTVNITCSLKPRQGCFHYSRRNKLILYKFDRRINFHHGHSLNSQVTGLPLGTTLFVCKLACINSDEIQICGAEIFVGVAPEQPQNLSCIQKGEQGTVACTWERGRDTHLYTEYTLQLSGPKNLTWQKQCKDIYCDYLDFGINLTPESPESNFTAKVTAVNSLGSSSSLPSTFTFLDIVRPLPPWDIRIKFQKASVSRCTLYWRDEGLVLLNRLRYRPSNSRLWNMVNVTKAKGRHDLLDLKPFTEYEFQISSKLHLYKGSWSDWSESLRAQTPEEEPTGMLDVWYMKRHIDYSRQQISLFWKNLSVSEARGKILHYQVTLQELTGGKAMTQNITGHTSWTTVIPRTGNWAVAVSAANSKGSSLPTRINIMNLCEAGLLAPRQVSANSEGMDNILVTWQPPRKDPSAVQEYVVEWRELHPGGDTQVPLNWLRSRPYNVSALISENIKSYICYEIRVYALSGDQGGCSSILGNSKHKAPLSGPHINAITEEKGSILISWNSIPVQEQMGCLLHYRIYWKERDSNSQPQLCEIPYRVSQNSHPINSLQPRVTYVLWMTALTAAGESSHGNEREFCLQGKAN


Each binder was assayed against T1, extracellular domain of human IL12Rb2 … (assay: periplasmic extract ELISA on antigen-coated plate; positive if A450 at least threefold over PBS-coated control).
Method: Upon completion of the biopanning of Example 3, three 96-well plates of individual phage clones were isolated in order to perform periplasmic extract ELISA (PE-ELISA) on IL12Rb2 coated plates to identify positive VHH binders that selectively bound IL12Rb2. A 96-well plate was coated with IL12Rb2 and PBS under the same conditions. Next, wells were blocked at 37° C. for 1 h. Then, 100 μl of extracted antibodies was added to each well and incubated for 1 h. Subsequently, 100 μl of anti-tag polyclonal antibody conjugated to HRP was added to each well and incubated at 37° C. for 1 h. Plates were developed with TMB substrate. The reaction was stopped by the addition of H2SO4. Absorbance at 450 nm was read on a microtiter plate reader. Antibodies with absorbance of the antigen-coated well at least threefold greater than PBS-coated control are VHHs that specifically bind to IL 12Rb2. Positive clones were sequenced, and sequences analyzed to identify unique clonotypes

| Binder | binding result |
| --- | --- |
| VHH4 (VHH, Camel VHH, tested as a periplasmic extract of a phage clone; also called anti-human IL12Rb2 VHH4; hIL12Rb2 VHH; not shown: HA/His tag encoded by the pMECS phagemid) VHH: QVQLQESGGGSVQAGGSLRLSCVASGFTISRYCMGWLRQAPGKQREGVAIIERDGRTGYADSVKGRFTISKDNAKNTLYLQMNSLKPGDTAMYYCGAIEGSCRPDFGYRGQGTQVTVSS | binds |
| VHH1 (VHH, Camel VHH, tested as a periplasmic extract of a phage clone; also called anti-human IL12Rb2 VHH1; hIL12Rb2 VHH; not shown: HA/His tag encoded by the pMECS phagemid) VHH: QVQLQESGGGSVQAGGSLRLSCAASGFTVTRYCMGWLRQAPGKQREGVAIIERDGRTGYADSVKGRFTISKDNAKNTLYLQMNSLKPEDTAMYYCGAIEGSCRPDFGYRGQGTQVTVSS | binds |
| VHH8 (VHH, Camel VHH, tested as a periplasmic extract of a phage clone; also called anti-human IL12Rb2 VHH8; hIL12Rb2 VHH; not shown: HA/His tag encoded by the pMECS phagemid) VHH: QVQLQESGGGSVQAGGSLRLSCAASGFTVSRYCMGWLRQAPGKQREGVAIIEREGRTGYADSVKGRFTISKDNAKNTLYLQMNSLKPEDTAMYYCGAIEGSCRPDFGYRGQGTQVTVSS | binds |
| VHH10 (VHH, Camel VHH, tested as a periplasmic extract of a phage clone; also called anti-human IL12Rb2 VHH10; hIL12Rb2 VHH; not shown: HA/His tag encoded by the pMECS phagemid) VHH: QVQLQESGGGSVQAGGSLRLSCAASGFTVTRYCMGWLRQAPGKQREGVAIIERDGRTGYADSVKGRFTISKDNAKNTLYLQMNSLKPEDTAMYYCGAIEGSCRPDFGYRGQGTQVTVSS | binds |
| VHH13 (VHH, Camel VHH, tested as a periplasmic extract of a phage clone; also called anti-human IL12Rb2 VHH13; hIL12Rb2 VHH; not shown: HA/His tag encoded by the pMECS phagemid) VHH: QVQLQESGGGSVQAGGSLRLSCAASGFTISKYCMGWLRQAPGKQREGVAIIERDGRTGYADSVKGRFTISKDNAKNTLYLQMNSLKPEDTAMYYCGAIEGSCRPDFGYRGQGTQVTVSS | binds |
| VHH17 (VHH, Camel VHH, tested as a periplasmic extract of a phage clone; also called anti-human IL12Rb2 VHH17; hIL12Rb2 VHH; not shown: HA/His tag encoded by the pMECS phagemid) VHH: QVQLQESGGGSVQAGGSLRLSCAASGLTISRYCMGWLRQAPGKQREGVAIIERDGRTGYADSVKGRFTISKDNAKNTLYLQMNSLKPEDTAMYYCGAIEGSCRPDFGYRGQGTQVTVSS | binds |
| VHH3 (VHH, Camel VHH, tested as a periplasmic extract of a phage clone; also called anti-human IL12Rb2 VHH3; hIL12Rb2 VHH; not shown: HA/His tag encoded by the pMECS phagemid) VHH: QVQLQESGGGSVQAGGSLRLSCTASGLTFDDVEMAWYRQGPGDDYDLVSSINTDSRVYYVDSVKDRFTISRDNAKNTLYLQMNNLKPEDTAVYYCAADPWGGDLRGYPNYWGQGTQVTVSS | binds |
| VHH5 (VHH, Camel VHH, tested as a periplasmic extract of a phage clone; also called anti-human IL12Rb2 VHH5; hIL12Rb2 VHH; not shown: HA/His tag encoded by the pMECS phagemid) VHH: QVQLQESGGGLVQPGGSLKLSCAASGFTFSTYAMSWVRQAPGKEPEWISRISSGGGNTYYADAVKGRFAISRDNAKNTLYLQLNSLKTEDTAIYVCTMDDYYGGSWHPISRGHGTQVTVSS | binds |
| VHH7 (VHH, Camel VHH, tested as a periplasmic extract of a phage clone; also called anti-human IL12Rb2 VHH7; hIL12Rb2 VHH; not shown: HA/His tag encoded by the pMECS phagemid) VHH: QVQLQESGGGSVQAGGSLRLSCAASGVTYSRYCMGWFRQAPGLERERVATIYSRGIITYYTDSVKGRFTISQDSAKKTVYLQMNSLKPEDTAMYYCAATRETYGGSGDCDYESVYNYWAQGTQVTVSS | binds |
| VHH12 (VHH, Camel VHH, tested as a periplasmic extract of a phage clone; also called anti-human IL12Rb2 VHH12; hIL12Rb2 VHH; not shown: HA/His tag encoded by the pMECS phagemid) VHH: QVQLQESGGGSVQAGGSLRLSCAASGVTYSRYCMGWFRQAPGLERERVATIYSRGIITYYTDSVKGRFTISQDSAKKTVYLQMNMLKPEDTAMYYCAATRETYGGSGDCDYESVYNYWAQGTQVTVSS | binds |
| VHH14 (VHH, Camel VHH, tested as a periplasmic extract of a phage clone; also called anti-human IL12Rb2 VHH14; hIL12Rb2 VHH; not shown: HA/His tag encoded by the pMECS phagemid) VHH: QVQLQESGGGSVQAGGSLRLSCAASGVTYSRYCMGWFRQAPGLERERVAHIYSRGIITYYTDSVKGRFTISQDSAKKTVYLQMNSLKPEDTAMYYCAATRETYGGSGDCGYESVYNYWAQGTQVTVSS | binds |
| VHH16 (VHH, Camel VHH, tested as a periplasmic extract of a phage clone; also called anti-human IL12Rb2 VHH16; hIL12Rb2 VHH; not shown: HA/His tag encoded by the pMECS phagemid) VHH: QVQLQESGGGSVQAGGSLRLSCAASGVTYSRYCMGWFRQAPGLERERVAHIYSRGIITYYTDSVKGRFTISQDSAKKTVYLQMNSLKPEDTAMYYCAATRETYGGSGDCSYESVYNHWAQGTQVTVSS | binds |
